We go through four variants from IntAct's records for PubMed 26342861.

Sequences and labels used below:
B1: Wnt inhibitory factor 1 (Homo sapiens), Q9Y5W5 (parent)
chain: MARRSAFPAAALWLWSILLCLLALRAEAGPPQEESLYLWIDAHQARVLIGFEEDILIVSEGKMAPFTHDFRKAQQRMPAIPVNIHSMNFTWQAAGQAEYFYEFLSLRSLDKGIMADPTVNVPLLGTVPHKASVVQVGFPCLGKQDGVAAFEVDVIVMNSEGNTILQTPQNAIFFKTCQQAECPGGCRNGGFCNERRICECPDGFHGPHCEKALCTPRCMNGGLCVTPGFCICPPGFYGVNCDKANCSTTCFNGGTCFYPGKCICPPGLEGEQCEISKCPQPCRNGGKCIGKSKCKCSKGYQGDLCSKPVCEPGCGAHGTCHEPNKCQCQEGWHGRHCNKRYEASLIHALRPAGAQLRQHTPSLKKAEERRDPPESNYIW
partner: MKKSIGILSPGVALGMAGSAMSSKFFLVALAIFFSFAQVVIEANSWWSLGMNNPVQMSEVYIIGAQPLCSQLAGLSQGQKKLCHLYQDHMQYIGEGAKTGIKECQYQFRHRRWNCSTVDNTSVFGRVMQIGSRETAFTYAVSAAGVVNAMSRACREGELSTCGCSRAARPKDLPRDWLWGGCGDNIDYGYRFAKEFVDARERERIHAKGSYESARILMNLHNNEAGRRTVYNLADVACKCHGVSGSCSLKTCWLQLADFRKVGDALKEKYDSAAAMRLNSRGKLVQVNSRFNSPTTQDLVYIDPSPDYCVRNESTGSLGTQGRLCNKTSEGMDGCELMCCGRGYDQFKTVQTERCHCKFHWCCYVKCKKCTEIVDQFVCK
B2: Wnt inhibitory factor 1 (Homo sapiens), Q9Y5W5 (parent)
chain: B1 chain
partner: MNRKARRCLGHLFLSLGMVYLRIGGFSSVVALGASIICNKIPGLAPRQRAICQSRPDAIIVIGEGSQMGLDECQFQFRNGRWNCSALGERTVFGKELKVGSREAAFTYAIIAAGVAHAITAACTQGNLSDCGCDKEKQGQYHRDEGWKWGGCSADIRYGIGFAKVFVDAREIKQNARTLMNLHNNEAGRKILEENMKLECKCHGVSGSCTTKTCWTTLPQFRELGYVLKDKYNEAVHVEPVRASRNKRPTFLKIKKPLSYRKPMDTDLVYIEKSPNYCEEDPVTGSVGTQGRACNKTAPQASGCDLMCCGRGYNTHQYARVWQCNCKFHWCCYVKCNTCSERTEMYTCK

In the first assay the parent is B1. The settings on record: with wnt5a_human WNT5A.
In the case of MARRSAFPAAALWLWSILLCLLALRAEAGPPQEESLYLWIDAHQARVLIGFEEDILIVSEGKMAPFTHDFRKAQQRMPAIPVNIHSMNFTWQAAGQAEYFYEFLSLRSLDKGIMADPTVNVPLLGTVPHKASVVQVGFPCLGKQDGVAAFEVDVRVMNSEGNTILQTPQNAIFFKTCQQAECPGGCRNGGFCNERRICECPDGFHGPHCEKALCTPRCMNGGLCVTPGFCICPPGFYGVNCDKANCSTTCFNGGTCFYPGKCICPPGLEGEQCEISKCPQPCRNGGKCIGKSKCKCSKGYQGDLCSKPVCEPGCGAHGTCHEPNKCQCQEGWHGRHCNKRYEASLIHALRPAGAQLRQHTPSLKKAEERRDPPESNYIW [I155R], the “effect of a mutation on the interaction” value is reported as “disrupting interaction”.

Another assay covers variants of B1. The note with it: with wnt5a_human WNT5A. The source holds these as a separate data set.
For the variant MARRSAFPAAALWLWSILLCLLALRAEAGPPQEESLYLWIDAHQARVLIGFEEDILIVSEGKMAPFTHDFRKAQQRMPAIPVNIHSMNFTWQAAGQAEYFYEFLSLRSLDKGIMADPTVNVPLLGTVPHKASVVQVGFPCLGKQDGVAAFEVDVRVMNSEGNTILQTPQNAIFFKTCQQAECPGGCRNGGFCNERRICECPDGFHGPHCEKALCTPRCMNGGLCVTPGFCICPPGFYGVNCDKANCSTTCFNGGTCFYPGKCICPPGLEGEQCEISKCPQPCRNGGKCIGKSKCKCSKGYQGDLCSKPVCEPGCGAHGTCHEPNKCQCQEGWHGRHCNKRYEASLIHALRPAGAQLRQHTPSLKKAEERRDPPESNYIW [I155R], the “effect of a mutation on the interaction” value is “decreasing interaction”.

In a further assay the parent is B2. The settings on record: with wnt7a_human WNT7A.
Consider MARRSAFPAAALWLWSILLCLLALRAEAGPPQEESLYLWIDAHQARVLIGFEEDILIVSEGKMAPFTHDFRKAQQRMPAIPVNIHSMNFTWQAAGQAEYFYEFLSLRSLDKGIMADPTVNVPLLGTVPHKASVVQVGFPCLGKQDGVAAFEVDVRVMNSEGNTILQTPQNAIFFKTCQQAECPGGCRNGGFCNERRICECPDGFHGPHCEKALCTPRCMNGGLCVTPGFCICPPGFYGVNCDKANCSTTCFNGGTCFYPGKCICPPGLEGEQCEISKCPQPCRNGGKCIGKSKCKCSKGYQGDLCSKPVCEPGCGAHGTCHEPNKCQCQEGWHGRHCNKRYEASLIHALRPAGAQLRQHTPSLKKAEERRDPPESNYIW [I155R], for which the “effect of a mutation on the interaction” value is given as “decreasing interaction”.
For the variant MARRSAFPAAALWLWSILLCLLALRAEAGPPQEESLYLWIDAHQARVLIGFEEDILIVSEGKMAPFTHDFRKAQQRMPAIPVNIHSMNFTWQAAGQAEYFYEFLSLRSLDKGIMADPTVNVPLLGTVPHKASVVQVGFPCLGKQDGVAAFEVDVIVMNSEGNTILQTPQNARFFKTCQQAECPGGCRNGGFCNERRICECPDGFHGPHCEKALCTPRCMNGGLCVTPGFCICPPGFYGVNCDKANCSTTCFNGGTCFYPGKCICPPGLEGEQCEISKCPQPCRNGGKCIGKSKCKCSKGYQGDLCSKPVCEPGCGAHGTCHEPNKCQCQEGWHGRHCNKRYEASLIHALRPAGAQLRQHTPSLKKAEERRDPPESNYIW [I172R], the “effect of a mutation on the interaction” value is “decreasing interaction”.
Take MARRSAFPAAALWLWSILLCLLALRAEAGPPQEESLYLWIDAHQARVLIGFEEDILIVSEGKMAPFTHDFRKAQQRMPAIPVNIHSMNFTWQAAGQAEYFYEFLSLRSLDKGIMADPTVNVPRLGTVPHKASVVQVGFPCLGKQDGVAAFEVDVIVMNSEGNTILQTPQNAIFFKTCQQAECPGGCRNGGFCNERRICECPDGFHGPHCEKALCTPRCMNGGLCVTPGFCICPPGFYGVNCDKANCSTTCFNGGTCFYPGKCICPPGLEGEQCEISKCPQPCRNGGKCIGKSKCKCSKGYQGDLCSKPVCEPGCGAHGTCHEPNKCQCQEGWHGRHCNKRYEASLIHALRPAGAQLRQHTPSLKKAEERRDPPESNYIW [L123R]: the “effect of a mutation on the interaction” value is “decreasing interaction”.

The variants in the next assay derive from B2. The settings on record: with wnt7a_human WNT7A. The source holds these as a separate data set.
For MARRSAFPAAALWLWSILLCLLALRAEAGPPQEESLYLWIDAHQARVLIGFEEDILIVSEGKMAPFTHDFRKAQQRMPAIPVNIHSMNFTWQAAGQAEYFYEFLSLRSLDKGIMADPTVNVPLLGTVPHKASVVQVGFPCLGKQDGVAAFEVDVRVMNSEGNTILQTPQNAIFFKTCQQAECPGGCRNGGFCNERRICECPDGFHGPHCEKALCTPRCMNGGLCVTPGFCICPPGFYGVNCDKANCSTTCFNGGTCFYPGKCICPPGLEGEQCEISKCPQPCRNGGKCIGKSKCKCSKGYQGDLCSKPVCEPGCGAHGTCHEPNKCQCQEGWHGRHCNKRYEASLIHALRPAGAQLRQHTPSLKKAEERRDPPESNYIW [I155R], the “effect of a mutation on the interaction” value is recorded as “increasing interaction”.
